Entries after “also recorded” stand apart in the source; their conditions may differ.
Experiments:
[1] = biological target: T1, HER3 (extracellular domain) (Homo sapiens, UniProt P21860); assay: ELISA binding specificity on recombinant soluble EGFR, HER2, HER3; conditions: plate coated with 1 μg/ml recombinant soluble EGFR, HER2 or HER3 extracellular domain
T1 construct: recombinant soluble EGFR, HER2, or the extracellular domain of HER3
Procedure: (§1) The average OD values of triplicates are presented. The values for egFR are superimposed on the values for HER2. […] EGFR, HER2 or HER3-transfected SP 2/0 cells were stained with 1 μg/ml of purified antibody, followed by PE-goat anti-mouse IgG.
(§2) An ELISA plate was coated with 1 μg/ml of recombinant soluble EGFR, HER2, or the extracellular domain of HER3.

[2] = biological target: T2, HER3-transfected SP 2/0 cells (Homo sapiens, UniProt P21860); assay: Flow cytometry binding specificity on transfected SP 2/0 cells; conditions: EGFR, HER2 or HER3 transfected SP2/0 cells, 1 μg/ml purified antibody
T2 construct: expressed in transfected cells; host or cells: SP 2/0 cells
Procedure: as §1, §2

recombinant soluble HER3 [3] = biological target: T3, recombinant soluble HER3 (Homo sapiens, UniProt P21860); assay: ELISA for blocking of NRG1 binding to HER3; conditions: 100 ng/ml biotin-conjugated NRG1, increasing antibody concentrations
T3 construct: coated with 1 μg/ml of recombinant soluble HER3
Text: (§3) The binding of NRG1 to HER3 (vertical axis) was detected by HRP-streptavidin. […] NRG1 binding was detected by PE-streptavidin. The mean fluorescent intensities (MFI) of NRG1 bound are presented.
(§4) The binding of NRG1 to HER3 was detected by HRP-streptavidin. […] Thus, the 1A5 antibody is herein referred to as a ligand-independent antibody. […] Thus, the 3D4 antibody is herein referred to as a ligand-dependent antibody. […] NRG1 binding was detected by PE-streptavidin.

[4] = biological target: T2, HER3-transfected SP 2/0 cells; assay: Flow cytometry for blocking of NRG1 binding to HER3; conditions: 100 ng/ml biotin-conjugated NRG1, increasing antibody concentrations
Text: as §3, §4

recombinant soluble HER3 [5] = biological target: T3, recombinant soluble HER3; assay: Sandwich ELISA for epitopes (1A5 capture, HRP-3D4 detection); format: binding; conditions: plate coated with 2 μg/ml 1A5, 200 ng/ml HRP-conjugated 3D4
Procedure: An ELISA plate was coated with 2 μg/ml of purified 1A5 and then incubated with indicated concentrations of recombinant soluble HER3 in the presence of 200 ng/ml HRP-conjugated 3D4. The binding of 3D4 to HER3 was detected by chemiluminescence substrate. The average counts per second of triplicates are presented.
An ELISA plate was coated with 2 μg/ml of purified 1A5 and then incubated with increasing concentrations of HER3 in the presence of 200 ng/ml HRP-conjugated 3D4. The binding of 3D4 antibody to HER3 was detected by chemiluminescence.

[6] = system: A549 human lung cancer xenograft; assay: A549 human lung cancer xenograft model; format: in vivo
[7] = system: N87 human gastric cancer xenograft; assay: N87 human gastric cancer xenograft model; format: in vivo; conditions: in combination with lapatinib
[8] = system: MKN28 human gastric cancer xenograft; assay: MKN28 human gastric cancer xenograft model; format: in vivo; conditions: in combination with lapatinib
[9] = system: HT29 human colon cancer xenograft; assay: HT29 human colon cancer xenograft model; format: in vivo
[10] = system: DR5-apoptosis resistant human breast cancer ZR75-1 cell line; assay: Functional screen for apoptosis of DR5-resistant cells; format: cell-based; conditions: in the presence of an agonistic DR5-antibody selected from TRA-8 or CTB006
Text: In a functional screen of a hybridoma library made against the DR5-apoptosis resistant human breast cancer ZR75-1 cell line, the 1A5 antibody was identified. […] The target of the 1A5 antibody was identified to be HER3 by immunoprecipitation with the 1A5 antibody and subsequent mass spectrometry analysis.

HER2 [11] = biological target: T4, HER2 (Homo sapiens, UniProt P04626); assay: HER2 autophosphorylation in pancreatic cancer cell lines; format: cell-based; parameters: endogenous in cells
HER3 [12] = biological target: T5, HER3 (Homo sapiens, UniProt P21860); assay: HER3 tyrosine phosphorylation ELISA, antibodies with or without tyrosine kinase inhibitor; format: cell-based; parameters: endogenous in cells; host or cells: N87; tyrosine phosphorylation of HER3: dose or concentration left out as unconfirmed; conditions: 24 hours; for tyrosine phosphorylation levels of HER3: 20 μg/ml antibody
HER3 [13] = biological target: T5, HER3; assay: Ligand-independent activation (autophosphorylation) of HER3 in cancer cells, ELISA; format: cell-based; parameters: endogenous in cells; host or cells: N87, BT474, ZR75-30, Panc 2.03
Procedure: The ELISA plate was coated with 3F8 anti-HER3 antibody (recognizing a different epitope than 1A5 and 3D4) to capture total HER3 (Total HER3, right graph for FIGS. 4A-4D). […] The total HER3 was detected by HRP-conjugated 1E8 anti-HER3 antibody. The tyrosine-phosphorylated HER3 and total HER3 levels were then measured by chemiluminescence.
The ELISA plate was coated with 3F8 anti-HER3 antibody (recognizing a different epitope than the 1A5 antibody) to capture total HER3.

HER3 [14] = biological target: T5, HER3; assay: Ligand-dependent (NRG1) activation of HER3 in cancer cells, ELISA; format: cell-based; parameters: endogenous in cells; host or cells: N87, BT474, ZR75-30, Panc 2.03; conditions: N87, BT474, ZR75-30, Panc 2.03 cells; antibody 24 hours, then 100 pg/ml NRG1 1 hour
Text: (§5) The ELISA plate was coated with 3F8 anti-HER3 antibody (recognizing a different epitope than 1A5 and 3D4) to capture total HER3.
as §5
An ELISA plate was coated with 3F8 anti-HER3 antibody to capture total HER3.

EGFR [15] = biological target: T6, EGFR (Homo sapiens, UniProt P00533); assay: EGFR autophosphorylation in pancreatic cancer cell lines; format: cell-based; parameters: endogenous in cells; host or cells: panel of eight pancreatic cancer cell lines
HER2 [16] = biological target: T4, HER2; assay: HER2 tyrosine phosphorylation ELISA, antibodies with or without lapatinib; format: cell-based; parameters: endogenous in cells; host or cells: N87 gastric cancer cells; ZR75-30 breast cancer cells; conditions: 24 hours, without lapatinib
EGFR [17] = biological target: T6, EGFR; assay: EGFR tyrosine phosphorylation ELISA, antibodies with or without tyrosine kinase inhibitor; conditions: 24 hours
HER3 [18] = biological target: T5, HER3; assay: HER3 autophosphorylation in pancreatic cancer cell lines; format: cell-based; parameters: endogenous in cells; host or cells: N87, BT474, ZR75-30, Panc 2.03, A549 and a panel of human cancer cell lines; conditions: single agents

T3 sequence (P21860 20-643 limits assumed): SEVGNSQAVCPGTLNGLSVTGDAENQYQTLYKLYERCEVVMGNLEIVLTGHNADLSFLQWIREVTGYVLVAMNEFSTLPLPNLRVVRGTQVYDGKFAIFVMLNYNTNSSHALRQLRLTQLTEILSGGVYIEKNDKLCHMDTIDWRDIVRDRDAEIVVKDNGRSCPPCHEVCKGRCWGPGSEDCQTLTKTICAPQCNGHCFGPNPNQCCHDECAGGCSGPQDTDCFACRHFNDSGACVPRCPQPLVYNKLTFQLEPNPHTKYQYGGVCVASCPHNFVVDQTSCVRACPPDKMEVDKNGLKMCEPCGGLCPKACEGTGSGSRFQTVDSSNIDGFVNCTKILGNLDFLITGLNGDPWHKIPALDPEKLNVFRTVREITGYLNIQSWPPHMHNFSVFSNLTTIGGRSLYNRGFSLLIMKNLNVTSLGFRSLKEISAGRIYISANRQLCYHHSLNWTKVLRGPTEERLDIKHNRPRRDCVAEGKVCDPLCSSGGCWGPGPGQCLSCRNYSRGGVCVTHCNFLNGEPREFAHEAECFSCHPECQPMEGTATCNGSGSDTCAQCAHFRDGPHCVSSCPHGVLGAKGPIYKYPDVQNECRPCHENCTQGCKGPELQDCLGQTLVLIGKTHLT
T2 sequence (P21860 20-1342): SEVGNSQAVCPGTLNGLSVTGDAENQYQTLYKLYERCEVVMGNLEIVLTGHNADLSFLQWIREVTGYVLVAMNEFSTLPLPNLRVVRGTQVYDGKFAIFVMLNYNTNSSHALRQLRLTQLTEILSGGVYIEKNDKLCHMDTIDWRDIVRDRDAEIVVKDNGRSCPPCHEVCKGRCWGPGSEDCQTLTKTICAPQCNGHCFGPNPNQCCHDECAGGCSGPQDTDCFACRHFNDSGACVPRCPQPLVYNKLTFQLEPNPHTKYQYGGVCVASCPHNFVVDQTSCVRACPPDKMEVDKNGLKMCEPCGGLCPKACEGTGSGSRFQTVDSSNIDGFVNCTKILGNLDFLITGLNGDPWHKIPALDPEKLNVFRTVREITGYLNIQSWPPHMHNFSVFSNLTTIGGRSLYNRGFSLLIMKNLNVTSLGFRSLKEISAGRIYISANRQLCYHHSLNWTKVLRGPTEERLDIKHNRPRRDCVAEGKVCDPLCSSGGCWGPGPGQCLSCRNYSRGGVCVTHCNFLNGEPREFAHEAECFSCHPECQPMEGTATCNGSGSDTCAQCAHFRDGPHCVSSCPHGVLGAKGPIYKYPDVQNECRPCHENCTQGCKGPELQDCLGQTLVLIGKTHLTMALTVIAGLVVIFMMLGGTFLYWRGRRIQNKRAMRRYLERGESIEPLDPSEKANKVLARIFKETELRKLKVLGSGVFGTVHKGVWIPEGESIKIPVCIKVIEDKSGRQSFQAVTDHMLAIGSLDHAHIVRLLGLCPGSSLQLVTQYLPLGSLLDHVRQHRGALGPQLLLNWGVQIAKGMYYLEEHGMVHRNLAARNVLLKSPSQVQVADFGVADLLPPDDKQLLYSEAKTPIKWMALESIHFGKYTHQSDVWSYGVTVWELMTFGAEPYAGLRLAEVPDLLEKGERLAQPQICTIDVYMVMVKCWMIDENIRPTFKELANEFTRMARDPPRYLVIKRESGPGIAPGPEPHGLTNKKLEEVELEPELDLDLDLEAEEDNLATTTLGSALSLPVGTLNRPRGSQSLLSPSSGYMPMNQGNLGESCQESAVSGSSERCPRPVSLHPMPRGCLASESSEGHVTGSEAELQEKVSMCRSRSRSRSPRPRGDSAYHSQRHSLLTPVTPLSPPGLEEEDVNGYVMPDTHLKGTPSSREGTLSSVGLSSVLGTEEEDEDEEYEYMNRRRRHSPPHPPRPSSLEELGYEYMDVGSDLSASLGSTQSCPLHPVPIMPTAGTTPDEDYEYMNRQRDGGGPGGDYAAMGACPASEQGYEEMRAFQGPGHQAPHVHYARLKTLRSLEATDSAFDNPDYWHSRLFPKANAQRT
T5 sequence (P21860 20-1342): as above
T1 sequence (P21860 20-643 limits assumed): as the sequence (P21860 20-643 limits assumed) above

B1: 1A5: ligand-independent HER3 antibody; heavy chain variable region SEQ ID NO:1, light chain variable region SEQ ID NO:2 (antibody, V domains shown)
VH: MEWIWIFLFIFSGTAGVHSQVQLQQSGAELARPGASVKLSCKASGYTFTDNYINWMKQRPGQGLEWIGEIYPGSGNTYYNEKFKGKATLTADKSSSTAYMQLSSLTSEESAVYFCARSPNLRLYYFDYWGQGTTLTVSS
VL: MVSTSQLLGLLLFWTSASRCDIVMTQSPATLSVTPGDRVSLSCRASQSINDYLYWYQQKLHESPRLLIKFASHSISGIPSRFSGSGSGSDFTLSINSVEPEDVGVYYCQNGHSFPLTFGAGTKLELK
[1]
  binding specificity by ELISA: specifically bind HER3; also recorded: specific binding
[2]
  binding specificity by flow cytometry: specifically bind HER3
Recombinant soluble HER3 [3]
  blocking of NRG1 binding to HER3 (ELISA): failed in block NRG1 binding to HER3; also recorded: does not block ligand binding to HER3
[4]
  blocking of NRG1 binding to HER3 (flow cytometry): failed to block NRG1 binding to HER3; also recorded: does not block ligand binding to HER3
Recombinant soluble HER3 [5]
  epitopes of HER3 bound: bind different epitopes of HER3; also recorded: recognize different epitopes on HER3
[6]; antibodies without Erbitux
  tumor volume: reduced tumor volume
[6]; in combination with Erbitux
  tumor volume: reduced tumor volume more than administration of Erbitux alone
[7]
  tumor volume: synergistically reduces tumor volume
[8]
  tumor volume: synergistically reduces tumor volume
[9]; antibodies or lapatinib alone
  tumor volume: had the greatest tumor volume reducing effect; also recorded: reduces tumor volume
[9]; in combination with lapatinib
  tumor volume: synergistically reduces tumor volume
[10]
  apoptosis of DR5-resistant ZR75-1 cells: apoptosis of the DR5-resistant ZR75-1 cells was observed
HER2 [11]; in combination with lapatinib
  autophosphorylation of HER2, 1A5 with lapatinib: significantly reduced levels of HER2 autophosphorylation; also recorded: reduced the levels of HER2 autophosphorylation to a greater extent than the 1A5 antibody or lapatinib alone
HER2 [11]; single agents
  autophosphorylation of HER2: partially inhibited autophosphorylation of HER2
HER3 [12]; A549 cells, 20 μg/ml antibody with 100 nM Erlotinib
  tyrosine phosphorylation levels of HER3, effect of adding Erlotinib: enhanced
HER3 [12]; A549 cells, without Erlotinib
  tyrosine phosphorylation levels of HER3: reduced the tyrosine-phosphorylation levels of HER3
HER3 [12]; N87 cells, without lapatinib
  tyrosine phosphorylation of HER3: reduced the tyrosine phosphorylation of HER3
HER3 [12]; N87 cells, with 100 nM lapatinib
  tyrosine phosphorylation of HER3, effect of adding lapatinib: enhanced
HER3 [12]; ZR75-30 cells, 20 μg/ml antibody with 100 nM lapatinib
  tyrosine phosphorylation levels of HER3, effect of adding lapatinib: enhanced
HER3 [12]; ZR75-30 cells, without lapatinib
  tyrosine phosphorylation levels of HER3: reduced the tyrosine phosphorylation levels of HER3
HER3 [13]; 20 μg/ml 1A5, 24 hours
  inhibition of ligand-independent activation of HER3 in a panel of human cancer cell lines: inhibition of ligand-independent activation of HER3 in a panel of human cancer cells lines
HER3 [13]; N87, BT474, ZR75-30, Panc 2.03 cells, increasing concentrations, 24 hours
  inhibition of autophosphorylation of HER3: capable of inhibiting autophosphorylation of HER3 to a greater extent than the ligand-dependent 3D4 antibody; also recorded: dose-dependent inhibition of ligand-independent activation (autophosphorylation) of HER3
HER3 [14]
  inhibition of ligand-dependent activation of HER3: capable of inhibiting ligand-dependent activation of HER3 to a lesser extent than the ligand-dependent 3D4 antibody
EGFR [15]; in combination with erlotinib
  autophosphorylation of EGFR, 1A5 with erlotinib: capable of enhancing the inhibitory activity of erlotinib; also recorded: able to enhance the inhibitory activity of erlotinib
EGFR [15]; in combination with lapatinib
  autophosphorylation of EGFR, 1A5 with lapatinib: not able to enhance the activity of lapatinib
EGFR [15]; single agents
  autophosphorylation of EGFR: partially inhibited EGFR autophosphorylation in a HER3-dependent fashion
HER2 [16]; N87 cells
  tyrosine phosphorylation level of HER2: did not affect the level of tyrosine phosphorylation for EGFR or HER2
HER2 [16]; ZR75-30 cells, 20 μg/ml antibody
  tyrosine phosphorylation levels of HER2: did not affect tyrosine phosphorylation levels of HER2
EGFR [17]; A549 cells, 20 μg/ml antibody, without Erlotinib
  tyrosine phosphorylation levels of EGFR: did not affect tyrosine phosphorylation levels of EGFR
EGFR [17]; N87 cells, 20 mg/ml antibody, without lapatinib
  tyrosine phosphorylation level of EGFR: did not affect the level of tyrosine phosphorylation for EGFR or HER2
HER3 [18]
  autophosphorylation of HER3: inhibited autophosphorylation of HER3 in all HER3 positive cell lines except for Panc1; also recorded: inhibited autophosphorylation of HER3 in all HER3 positive cell lines, except Panc 1
